Target: HA-Bicc1 with mutation D or with deletion of the KH tandem repeat
Test: co-IP

B1: GFP-Bicc1 (natural protein)
chain: MASQSEPGYLAAAQSDPGSNSERSTDSPVAGSEDDLVAAAPLLHSPEWSEERFRVDRKKLEAMLQAAAEGKGRSGEDFFQKIMEETNTQIAWPSKLKIGAKSKKDPHIKVSGKKEDVKEAKEMIMSVLDTKSNRVTLKMDVSHTEHSHVIGKGGNNIKKVMEDTGCHIHFPDSNRNNQAEKSNQVSIAGQPAGVESARARIRELLPLVLMFELPIAGILQPVPDPNTPSIQHISQTYSVSVSFKQRSRMYGATVTVRGSQNNTNAVKEGTAMLLEHLAGSLASAIPVSTQLDIAAQHHLFMMGRNGSNVKHIMQRTGAQIHFPDPSNPQKKSTVYLQGTIESVCLARQYLMGCLPLVLMFDMKEDIEVDPQVIAQLMEQLDVFISIKPKPKQPSKSVIVKSVERNALNMYEARKCLLGLESSGVSIATSLSPASCPAGLACPSLDILASAGLGLTGLGLLGPTTLSLNTSATPNSLLNALNTSVSPLQSSSSGTPSPTLWAPPIANTASATGFSTIPHLMLPSTAQATLTNILLSGVPTYGHTAPSPPPGLTPVDVHINSMQTEGKNISASINGHVQPANMKYGPLSTSSLGEKVLSSNHGDPSMQTAGPEQASPKSNSVEGCNDAFVEVGMPRSPSHSGNAGDLKQMLGASKVSCAKRQTVELLQGTKNSHLHGTDRLLSDPELSATESPLADKKAPGSERAAERAAAAQQKSERARLASQPTYVHMQAFDYEQKKLLATKAMLKKPVVTEVRTPTNTWSGLGFSKSMPAETIKELRRANHVSYKPTMTTAYEGSSLSLSRSSSREHLASGSESDNWRDRNGIGPMGHSEFSAPIGSPKRKQNKSREHYLSSSNYMDCISSLTGSNGCNLNSCFKGSDLPELFSKLGLGKYTDVFQQQEIDLQTFLTLTDQDLKELGITTFGARRKMLLAISELSKNRRKLFEPPNASCTSFLEGGASGRLPRQYHSDIASVSGRW
For B1, the percent reduction of co-immunoprecipitated GFP-Bicc1 relative to WT HA-Bicc1 was 60 to 75%.

Reference: publication doi:10.1101/2021.10.07.463531
